# Numbering of substitutions follows the chain as printed. In names and notes the source's numbering stands.
# B1: pMT9: pMT1 with Y200F S182E L273V L180A A202L Y65F C156A (protein)
# chain: MPQEARTPQQQVTADEVGDWYDKFGEVYHLTLGESVHCGLWFPPDAPVPQDMELVTMSSQAQDRYTDYLIETLDPKAGQHLLDIGCGTGRTALKAARQRGIAVTGVAVSKEQIAAANRLAAGHGLTERLTFEVADAMRLPYEDESFDCAWAIESLAHMDRAKALGEAWRVLKPGGDLLVAEEVVTEELTEPETALFETLFALNVPPRLGEFFDIVSGAGFHTLSLKDLSANLAMTMNVFALGVYSRRAEFTERFGAEFVDGLLAGLGSAQETVIRKTRFFMATLRKPAV
# modifications: Modified from pMT1
# notes: pMT1 with Y200F S182E L273V L180A A202L Y65F C156A
# B2: pMT1_Y200N (protein)
# chain: B1 chain with A156C, A180L, E182S, F200N, L202A, V273L
# B3: pMT1_M236N: pMT1 with M236N (protein)
# chain: B1 chain with A156C, A180L, E182S, F200Y, L202A, M236N, V273L
# B4: pMT1_R160M: pMT1 with R160M (protein)
# chain: B1 chain with A156C, R160M, A180L, E182S, F200Y, L202A, V273L
# B5: pMT1_E153K: pMT1 with E153K (protein)
# chain: B1 chain with E153K, A156C, A180L, E182S, F200Y, L202A, V273L
# B6: pMT1_Y200P: pMT1 with Y200P (protein)
# chain: B1 chain with A156C, A180L, E182S, F200P, L202A, V273L
# B7: pMT1_R160P: pMT1 with R160P (protein)
# chain: B1 chain with A156C, R160P, A180L, E182S, F200Y, L202A, V273L
# B8: pMT1_M236G: pMT1 with M236G (protein)
# chain: B1 chain with A156C, A180L, E182S, F200Y, L202A, M236G, V273L
# B9: pMT1_Y200H: pMT1 with Y200H (protein)
# chain: B1 chain with A156C, A180L, E182S, F200H, L202A, V273L
# B10: pMT1_E153L: pMT1 with E153L (protein)
# chain: B1 chain with E153L, A156C, A180L, E182S, F200Y, L202A, V273L
# B11: pMT1_M236H: pMT1 with M236H (protein)
# chain: B1 chain with A156C, A180L, E182S, F200Y, L202A, M236H, V273L
# B12: pMT1_R160H: pMT1 with R160H (protein)
# chain: B1 chain with A156C, R160H, A180L, E182S, F200Y, L202A, V273L
# B13: pMT1_M236L: pMT1 with M236L (protein)
# chain: B1 chain with A156C, A180L, E182S, F200Y, L202A, M236L, V273L
# B14: pMT1_Y200M: pMT1 with Y200M (protein)
# chain: B1 chain with A156C, A180L, E182S, F200M, L202A, V273L
# B15: pMT1_M236K: pMT1 with M236K (protein)
# chain: B1 chain with A156C, A180L, E182S, F200Y, L202A, M236K, V273L
# B16: pMT1_E153I: pMT1 with E153I (protein)
# chain: B1 chain with E153I, A156C, A180L, E182S, F200Y, L202A, V273L
# B17: pMT1_E153F: pMT1 with E153F (protein)
# chain: B1 chain with E153F, A156C, A180L, E182S, F200Y, L202A, V273L
# B18: pMT1_Y200K: pMT1 with Y200K (protein)
# chain: B1 chain with A156C, A180L, E182S, F200K, L202A, V273L
# B19: pMT1_R160L (protein)
# chain: B1 chain with A156C, R160L, A180L, E182S, F200Y, L202A, V273L
# B20: pMT1_E153H: pMT1 with E153H (protein)
# chain: B1 chain with E153H, A156C, A180L, E182S, F200Y, L202A, V273L
# B21: pMT1_M236I: pMT1 with M236I (protein)
# chain: B1 chain with A156C, A180L, E182S, F200Y, L202A, M236I, V273L
# B22: pMT1_R160I: pMT1 with R160I (protein)
# chain: B1 chain with A156C, R160I, A180L, E182S, F200Y, L202A, V273L
# B23: pMT1_Y200G: pMT1 with Y200G (protein)
# chain: B1 chain with A156C, A180L, E182S, F200G, L202A, V273L
# B24: pMT1_E153M: pMT1 with E153M (protein)
# chain: B1 chain with E153M, A156C, A180L, E182S, F200Y, L202A, V273L
# B25: pMT1_R160F: pMT1 with R160F (protein)
# chain: B1 chain with A156C, R160F, A180L, E182S, F200Y, L202A, V273L
# B26: pMT1_R160N (protein)
# chain: B1 chain with A156C, R160N, A180L, E182S, F200Y, L202A, V273L
# B27: pMT1_E153N: pMT1 with E153N (protein)
# chain: B1 chain with E153N, A156C, A180L, E182S, F200Y, L202A, V273L
# B28: pMT1_R160G (protein)
# chain: B1 chain with A156C, R160G, A180L, E182S, F200Y, L202A, V273L
# B29: pMT1_Y200I: pMT1 with Y200I (protein)
# chain: B1 chain with A156C, A180L, E182S, F200I, L202A, V273L
# B30: pMT1_R160K: pMT1 with R160K (protein)
# chain: B1 chain with A156C, R160K, A180L, E182S, F200Y, L202A, V273L
# B31: pMT1_E153G: pMT1 with E153G (protein)
# chain: B1 chain with E153G, A156C, A180L, E182S, F200Y, L202A, V273L
# B32: pMT1_M236F: pMT1 with M236F (protein)
# chain: B1 chain with A156C, A180L, E182S, F200Y, L202A, M236F, V273L
# Test: Cell lysate reaction of pMT enzymes with psi-ionone, irones quantified by HS-SPME-GCMS
# Format: biochemical
# Settings: for fold change in cis-α-irone produced: AUC vs non-mutated (=1)
# Method: Using the structure of pMT1 in complex with the cofactor S-adenosyl-L-homocysteine (SAH) and the substrate teleocidin A1 (PDB id: 5GM2) as a template, pMT1 bound to each of the four isomers of α-irone was modelled with the aim of identifying amino acid residues that could be critical to increase cis-α-irone or decrease trans-α-irone production (FIGS. 2d and 2e). […] Site-directed mutagenesis of the 24 residues was carried out with degenerative primers. Subsequently, the mutants of each site were pooled together, and examined if the activity or product-selectivity of the pooled mutants were increased (FIG. 8). This reduced the number of screening reactions to 24, which is manageable when a high-throughput enzymatic assay is not available. […] One residue was chosen and subjected to site-saturation mutagenesis by using degenerative primers containing NNN or NNK. The plasmid library was then transformed into E. coli BL21 (DE3) cells and plated on agar plate containing autoinduction media^19. […] Subsequently, the colonies were collected and resuspended in phosphate saline buffer. Equal number of cells was taken for lysis and cell lysate reactions were carried out in capped SPME-GC vials at 28° C. for 2 days. HS-SPME-GCMS analysis was used to quantify the amount of irones produced by each pooled-colony reaction. […] 24 residues including the control Gly85 (G85m) were subjected to site-saturation mutagenesis, using pMT1 as the template. […] The amount of cis-α-irone produced was estimated based on the area under the gas chromatogram curve (AUC). The fold change is calculated by comparing the AUC of cis-α-irone produced by the mutant enzyme to that of non-mutated.
# For each pMT mutant, it was transformed into BL21 and grown in autoinduction media with 5 mM lactose at 20° C. for 36 hrs. Then, cells were pelleted and concentrated 10 times by adding 1 ml of PBS. The OD600 was measured and 40*600 OD*ul cells were transferred into a new 1.5 ml tube. The cells were spun down and resuspended in 600 μl of lysis buffer (1×DNase buffer, 150 mM NaCl, 0.5% glycerol, 1 mg/ml lysozyme and 20U of DNasel). The cells were incubated for 2 hrs at 20° C. with shaking at 300 rpm. Following that, 2 cycles of freeze-thaw was done to completely lyse the cells. At the end of the 2nd thawing, the cell lysate was used to setup a 1 ml reaction in 2 ml GC vials. The reaction consisted of 50 mM Tris (pH7), 10 mM MgCl2, 60 mM NaCl, 0.2 mM SAM and 10 mg/L of psi-ionone and caryophyllene each. To this, 500 μl of cell lysate was added while the remaining 100 μl was used for SDS-PAGE to analyze the total and soluble protein expression. The reaction was incubated for 2 days at 28° C., 300 rpm prior to extraction of cis-α-irone with 500 μl hexane. From this, 20 μl of organic layer was taken into 180 μl hexane for GCMS analysis.
# For the mutant pMT activity screening, the reactants and products were analyzed by head space solid phase microextraction (HS-SPME) coupled with an Agilent 5977B gas chromatography (GC) system equipped with Agilent DB-5 ms column (30 m×250 μm×0.25 μm) and mass spectrometry (MS) with high efficiency source. The reaction mixtures were carried out in SPME vials which were incubated at 60° C. for 20 mins to allow the release of volatile compounds. The absorbent fiber (50/30 μm divinylbenzol/carboxen/polydimethyl-SPME fiber, SUPELCO) was then exposed to the headspace of the vial for 20 mins. The extracted analytes were desorbed at the GC inlet at 250° C. for 1 min and injected into GC with a split ratio of 200:1. The GC oven temperature increased from 50° C. to 140° C. at a rate of 10° C./min and held at 140° C. for 10 min. Subsequently, the temperature was increased to 320° C. at a rate of 60° C./min and held at 320° C. for 2 mins.
molecule,measurement,setting,value
B1,irone production / methyltransferase activity towards psi-ionone (in words),"cell lysate reaction, vs parent or control",increased both α- and β-irone production
B2,fold change in cis-α-irone produced,pMT1_Y200 mutants,0.0
B3,fold change in cis-α-irone produced,pMT1_M236 mutants,3.9
B4,fold change in cis-α-irone produced,pMT1_R160 mutants,0.9
B5,fold change in cis-α-irone produced,pMT1_E153 mutants,0.0
B6,fold change in cis-α-irone produced,pMT1_Y200 mutants,0.0
B7,fold change in cis-α-irone produced,pMT1_R160 mutants,0.6
B8,fold change in cis-α-irone produced,pMT1_M236 mutants,0.0
B9,fold change in cis-α-irone produced,pMT1_Y200 mutants,0.2
B10,fold change in cis-α-irone produced,pMT1_E153 mutants,0.0
B11,fold change in cis-α-irone produced,pMT1_M236 mutants,2.6
B12,fold change in cis-α-irone produced,pMT1_R160 mutants,1.0
B13,fold change in cis-α-irone produced,pMT1_M236 mutants,1.1
B14,fold change in cis-α-irone produced,pMT1_Y200 mutants,0.4
B15,fold change in cis-α-irone produced,pMT1_M236 mutants,0.0
B16,fold change in cis-α-irone produced,pMT1_E153 mutants,0.0
B17,fold change in cis-α-irone produced,pMT1_E153 mutants,0.0
B18,fold change in cis-α-irone produced,pMT1_Y200 mutants,0.0
B19,fold change in cis-α-irone produced,pMT1_R160 mutants,0.9
B20,fold change in cis-α-irone produced,pMT1_E153 mutants,0.0
B21,fold change in cis-α-irone produced,pMT1_M236 mutants,0.5
B22,fold change in cis-α-irone produced,pMT1_R160 mutants,1.5
B23,fold change in cis-α-irone produced,pMT1_Y200 mutants,0.1
B24,fold change in cis-α-irone produced,pMT1_E153 mutants,0.0
B25,fold change in cis-α-irone produced,pMT1_R160 mutants,0.0
B26,fold change in cis-α-irone produced,pMT1_R160 mutants,0.8
B27,fold change in cis-α-irone produced,pMT1_E153 mutants,0.0
B28,fold change in cis-α-irone produced,pMT1_R160 mutants,0.0
B29,fold change in cis-α-irone produced,pMT1_Y200 mutants,2.0
B30,fold change in cis-α-irone produced,pMT1_R160 mutants,0.0
B31,fold change in cis-α-irone produced,pMT1_E153 mutants,0.0
B32,fold change in cis-α-irone produced,pMT1_M236 mutants,0.0
